From paper PMC7438732, “The H^+-Translocating Inorganic Pyrophosphatase From Arabidopsis thaliana Is More Sensitive to Sodium Than Its Na^+-Translocating Counterpart From Methanosarcina mazei” (Frontiers in Plant Science, 2020)

Tested on: O=P(O)(O)OP(=O)(O)O
Experiment: cells, lysate or membranes
Conditions: 0 mM added NaCl, 100 mM KCl, pH 7.2, 30 °C, Mg2PPi substrate without excess Mg2+, Na+ from Na4PPi present

Sequence of MVP (Methanosarcina mazei Go1) (chain, as listed by the source): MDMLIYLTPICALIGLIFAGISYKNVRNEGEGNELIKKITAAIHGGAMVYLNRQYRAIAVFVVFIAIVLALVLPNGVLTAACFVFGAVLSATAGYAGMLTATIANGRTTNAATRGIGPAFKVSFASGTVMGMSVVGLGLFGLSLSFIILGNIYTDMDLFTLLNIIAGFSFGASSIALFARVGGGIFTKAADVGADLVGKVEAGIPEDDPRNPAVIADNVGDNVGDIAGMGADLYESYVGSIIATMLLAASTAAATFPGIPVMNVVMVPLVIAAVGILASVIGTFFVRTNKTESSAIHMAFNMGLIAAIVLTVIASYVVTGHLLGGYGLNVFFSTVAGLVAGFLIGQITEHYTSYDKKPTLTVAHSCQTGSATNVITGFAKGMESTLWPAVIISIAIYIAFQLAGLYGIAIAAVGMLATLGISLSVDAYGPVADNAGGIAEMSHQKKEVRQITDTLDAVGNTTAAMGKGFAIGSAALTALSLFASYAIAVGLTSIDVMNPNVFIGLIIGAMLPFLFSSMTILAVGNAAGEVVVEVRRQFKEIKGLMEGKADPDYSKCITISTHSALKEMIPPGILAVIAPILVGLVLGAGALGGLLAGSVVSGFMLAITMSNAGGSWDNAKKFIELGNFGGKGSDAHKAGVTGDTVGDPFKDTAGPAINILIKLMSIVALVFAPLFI

MVP (Methanosarcina mazei Go1)
K0.5: 0.27 ± 0.27 mM
